According to patent US8877192B2, “Rage fusion proteins and methods of use” (TransTech Pharma, LLC, priority 2004, dated 2014):

Tests used:
S100b (S100) = target: T1, S100b (S100) (Homo sapiens, UniProt P04271); test: In vitro ligand binding (ELISA) to immobilized S100b; details: increasing dilutions of fusion protein; FIG. 7
T1 sequence (P04271 1-92): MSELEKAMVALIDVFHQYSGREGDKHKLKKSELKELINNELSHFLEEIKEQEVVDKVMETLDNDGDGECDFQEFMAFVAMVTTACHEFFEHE
Procedure: For example, the RAGE fusion protein may be used in a binding assay to identify potential RAGE ligands. In one example embodiment of such a binding assay, a known RAGE ligand may coated onto a solid substrate (e.g., Maxisorb plates) at a concentration of about 5 micrograms per well, where each well contains a total volume of about 100 microliters (μL). The plates may be incubated at 4° C. overnight to allow the ligand to absorb. Alternatively, shorter incubation periods at higher temperature (e.g., room temperature) may be used. […] The fusion protein bound to the immobilized ligand may be detected in a variety of ways. […] The bound complex may be detected by adding the alkaline phosphatase substrate, para-nitrophenylphosphate (PNPP), and measuring conversion of PNPP to para-nitrophenol (PNP) as an increase in absorbance at 405 nm. […] Binding was detected by the addition of an immunodetection complex containing a monoclonal mouse anti-human IgG1 diluted 1:11,000 to a final assay concentration (FAC) of 21 ng/100 μL, a biotinylated goat anti-mouse IgG diluted 1:500, to a FAC of […], and an avidin-linked alkaline phosphatase. […] Binding of the complex to the immobilized fusion protein was quantified by measuring conversion of PNPP to para-nitrophenol (PNP) which was measured spectrophotometrically at 405 nm. […]

amyloid-beta (A-beta) = test: Competition of a RAGE ligand with immobilized amyloid-beta for binding to the fusion protein; details: TTP-4000 initial solution diluted 1:10 or 1:30; RAGE ligand FAC 10 μM
Procedure: The fusion protein of the present invention may also be used to identify compounds having the ability to bind to RAGE.
Known RAGE ligands were coated onto the surface of Maxisorb plates at a concentration of 5 micrograms per well. Plates were incubated at 4° C. overnight. Following ligand incubation, plates were aspirated and a blocking buffer of 1% BSA in 50 mM imidizole buffer (pH 7.2) was added to the plates for 1 hour at room temperature. The plates were then aspirated and/or washed with wash buffer (20 mM Imidizole, 150 mM NaCl, 0.05% Tween-20, 5 mM CaCl2 and 5 mM MgCl2, pH 7.2). […] The fusion protein was added at increasing dilutions of the initial sample. The RAGE fusion protein was allowed to incubate with the immobilized ligand at 37° C. for one hour after which the plate was washed and assayed for binding of the fusion protein. Binding was detected by the addition of an immunodetection complex containing a monoclonal mouse anti-human IgG1 diluted 1:11,000 to a final assay concentration (FAC) of 21 ng/100 μL, a biotinylated goat anti-mouse IgG diluted 1:500, to a FAC of […], and an avidin-linked alkaline phosphatase. […] Binding of the complex to the immobilized fusion protein was quantified by measuring conversion of PNPP to para-nitrophenol (PNP) which was measured spectrophotometrically at 405 nm. […]

B1: TTP-4000: four domain RAGE fusion protein (SEQ ID NO: 32): human RAGE amino acids 1-251 linked to CH2 and CH3 domains of human IgG (protein)
chain: MAAGTAVGAWALVLSLWGAVVGAQNITARIGEPLVLKCKGAPKKPPQRLEWKLNTGRTEAWKVLSPQGGGPWDSVARVLPNGSLFLPAVGIQDEGIFRCQAMNRNGKETKSNYRVRVYQIPGKPEIVDSASELTAGVPNKVGTCVSEGSYPAGTLSWHLDGKPLVPNEKGVSVKEQTRRHPETGLFTLQSELMVTPARGGDPRPTFSCSFSPGLPRHRALRTAPIQPRVWEPVPLEEVQLVVEPEGGAVAPPSVFLFPPKPKDTLMISRTPEVTCVVVDVSHEDPEVKFNWYVDGVEVHNAKTKPREEQYNSTYRVVSVLTVLHQDWLNGKEYKCKVSNKALPAPIEKTISKAKGQPREPQVYTLPPSRDELTKNQVSLTCLVKGFYPSDIAVEWESNGQPENNYKTTPPVLDSDGSFFLYSKLTVDKSRWQQGNVFSCSVMHEALHNHYTQKSLSLSPGK
binding to immobilized S100b (absorbance at 405 nm) (S100b (S100)): specifically interact | block of binding of fusion protein to immobilized amyloid-beta by the RAGE ligand (amyloid-beta (A-beta)): completely inhibited
